Measurements reported in US20020106775.

Tested on: plasminogen

In the case of “LMW-uPA-A279 (LMW-uPA with Cys279 to Ala279 replacement)”, the zymography is reported as “the product shown to be active in zymography (data not shown)”.
